{"source": "patent US11266715B2", "about": "“C3A receptor agonists for use against ischemic brain injury, stroke, traumatic brain injury, spinal cord injury and neurodegenerative disorders” (priority 2016, dated 2022)", "key": {"[1]": {"assay": "Body temperature monitoring for systemic anaphylactic response after intranasal C3a", "type": "in vivo, mouse", "description": "Purified human C3a peptide (Complement Technologies) was diluted in sterile phosphate buffered saline (PBS) to a concentration of 200 nM and a total of 20 μl (10 μl/nostril; corresponding to approximately 1.13 μg/kg body weight) of peptide solution or PBS was given intranasally to awake, hand-restrained mice held in a supine position. Solutions were administered through a pipette tip, drop-wise in 5 μl portions divided by 1 min intervals to allow for absorption. C3a or PBS was given every 24 hours on days 7 to 21 post-stroke for the short-term study or on days 7 to 28 post-stroke for the long-term study. Mice were assigned to C3a or PBS treatment using randomization stratified by body weight to avoid potential confounding effects of body weight on behavioural performance. The investigators carrying out behavioural studies and analysing data were blinded to treatment group. For the assessment of potential systemic anaphylactic response due to intranasal C3a inoculation, body temperature was monitored using a rectal temperature probe (Harvard Apparatus) inserted approximately 4 mm into the rectum of awake mice restrained by the scruff. Baseline temperature was taken before intranasal administration and 5, 15, 30, 45 and 75 min after C3a or PBS administration."}, "[2]": {"assay": "Body weight gain after neonatal HI and intranasal treatment", "type": "in vivo, mouse", "settings": "across surgeries, treatments and genotypes", "source_text": "Unpaired t test was used to analyze the cue-induced fear conditioning experimental data. For the analysis of the total exploration time during the object recognition test and the open field experiment, one-way Analysis of Variance (ANOVA) was used, followed by a Tukey's multiple comparisons post-hoc test. Two-way ANOVA, with a Tukey's multiple comparisons post-hoc test, was used to analyze time spent exploring individual objects during the object recognition test, as well as the histomorphologic data and image analysis data. Two-way repeated measures ANOVA with a Tukey's multiple comparisons post-hoc test were used to analyze the body weight. Data are presented as mean±SEM. P values <0.05 were considered statistically significant.\nTo assess potential adverse effects of intranasal C3a administration on the overall animal health status and development, the inventors recorded animal weight gain across surgeries, treatments and different genotype conditions."}, "[3]": {"system": "mice subjected to neonatal hypoxia-ischemia", "settings": "single i.c.v. injection 1 h after HI, wild-type mice tested as adults (42 days later); not in C3aR−/− mice; cited from earlier work"}, "[4]": {"system": "newly differentiated neurons", "settings": "in vitro; cited from earlier work"}, "VGLUT1+ puncta": {"system": "VGLUT1+ puncta", "assay": "VGLUT1 immunostaining of cortex 21 days after stroke", "type": "in vivo, mouse", "settings": "ipsilesional cortex, in particular deep cortical layers", "description": "For immunofluorescent evaluation, sections were deparaffinized, heated three times for 5 min in a microwave oven in 0.01 M citric buffer (pH 6.0), and blocked in PBS containing 0.05% Tween-20 (Sigma) and 1% in Bovine serum albumin (BSA, Sigma) for GAP-43 and synapsin I staining, 3% normal goat serum for VGLUT1 staining or 4% normal donkey serum for GAP-43 double stainings. Goat anti-synapsin la/b antibody (1:150; Santa Cruz, sc-7379) was followed by biotin-conjugated donkey anti-goat immunoglobulin (Ig) secondary antibody (1:200; Jackson Research Lab, 705-065-147) and Cy3-conjugated streptavidin (1:100; Sigma). Guinea pig anti-VGLUT1 (1:500; Millipore, AB5905) was followed by Alexa Fluor 488 goat anti-guinea pig Ig (1:500; Molecular Probes, A11073). […]\nHighest signal intensity single plane images of immunostained sections were obtained by laser scanning confocal microscope (LSM TCS SP2, Leica Microsystems, ×63/NA 1.3 objective for synapsin I and GAP-43; and LSM 700, Carl Zeiss for VGLUT1 ×40/NA 1.3) at 1024×1024 pixels resolution. […] Three standard sections per animal in 160 μm intervals were analysed. […]\nSingle-stained images were analysed using MetaMorph® software (Molecular Devices, ver. 2.8.5) to obtain number, average size and intensity of positive punctuate structures per image. […] An experimenter blinded to experimental group performed all image acquisitions and quantifications."}}, "note": "“Also recorded” adds a separate entry of the source.", "data": [{"substance": "C3a: Purified human C3a peptide (Complement Technologies), C3a receptor agonist, amino acid sequence SEQ ID NO: 1", "values": [{"measurement": "duration of the drop in body temperature", "setting": "[1]; after intranasal C3a or PBS", "value": "5 to 10", "unit": "min"}, {"measurement": "adverse or systemic effects of intranasal C3a", "setting": "[1]; even after repeated administration, stroke studies", "value": "did not observe any adverse or systemic effects"}, {"measurement": "adverse systemic response (hypersensitivity/anaphylaxis) to intranasal C3a", "setting": "[1]; judged from body temperature", "value": "absence of an adverse systemic response"}, {"measurement": "change in body temperature after intranasal administration", "setting": "[1]; rectal probe, awake mice, baseline and 5, 15, 30, 45, 75 min after intranasal C3a, same seen with PBS", "value": "very small drop in body temperature"}, {"measurement": "body weight gain", "setting": "[2]", "value": "neither the surgery nor the C3a treatment affected body weight gain"}, {"measurement": "HI-induced cognitive/memory impairment after single intraventricular C3a", "setting": "[3]", "value": "prevented HI-induced cognitive impairment; also recorded: ameliorated memory impairment"}, {"measurement": "neurite outgrowth", "setting": "[4]", "value": "increased neurite outgrowth"}, {"measurement": "density and size of VGLUT1+ puncta", "setting": "VGLUT1+ puncta", "value": "higher density and size"}]}]}
